Measurements reported in article PMC7898959, “Identification of an amino-terminus determinant critical for ryanodine receptor/Ca^2+ release channel function” (Cardiovascular Research, 2020).
Substitutions are numbered along the chain they refer to. Names and notes keep the numbering of the source.

B1: NT^Δβ8–β9 (RyR2 residues 1–906, residues 167–178 removed) (domain or fragment, human, UniProt Q92736 1-906, looked up)
chain: MADGGEGEDEIQFLRTDDEVVLQCTATIHKEQQKLCLAAEGFGNRLCFLESTSNSKNVPPDLSICTFVLEQSLSVRALQEMLANTVEKSEGQVDVEKWKFMMKTAQGGGHRTLLYGHAILLRHSYSGMYLCCLSTSRSSTDKLAFDVGLQEDTTGEACWWTIHPASDDLILVSVSSERYLHLSYGNGSLHVDAAFQQTLWSVAPISSGSEAAQGYLIGGDVLRLLHGHMDECLTVPSGEHGEEQRRTVHYEGGAVSVHARSLWRLETLRVAWSGSHIRWGQPFRLRHVTTGKYLSLMEDKNLLLMDKEKADVKSTAFTFRSSKEKLDVGVRKEVDGMGTSEIKYGDSVCYIQHVDTGLWLTYQSVDVKSVRMGSIQRKAIMHHEGHMDDGISLSRSQHEESRTARVIRSTVFLFNRFIRGLDALSKKAKASTVDLPIESVSLSLQDLIGYFHPPDEHLEHEDKQNRLRALKNRQNLFQEEGMINLVLECIDRLHVYSSAAHFADVAGREAGESWKSILNSLYELLAALIRGNRKNCAQFSGSLDWLISRLERLEASSGILEVLHCVLVESPEALNIIKEGHIKSIISLLDKHGRNHKVLDVLCSLCVCHGVAVRSNQHLICDNLLPGRDLLLQTRLVNHVSSMRPNIFLGVSEGSAQYKKWYYELMVDHTEPFVTAEATHLRVGWASTEGYSPYPGGGEEWGGNGVGDDLFSYGFDGLHLWSGCIARTVSSPNQHLLRTDDVISCCLDLSAPSISFRINGQPVQGMFENFNIDGLFFPVVSFSAGIKVRFLLGGRHGEFKFLPPPGYAPCYEAVLPKEKLKVEHSREYKQERTYTRDLLGPTVSLTQAAFTPIPVDTSQIVLPPHLERIREKLAENIHELWVMNKIELGWQYGP
notes: also called β8–β9 loop deletion; source: HEK293, transiently transfected, in cell homogenate (cross-linking) or CHAPS-solubilized lysate (co-IP); not shown: cMyc, N-terminal, kept
B2: NT^Δβ23–β24 (RyR2 residues 1–906, residues 399–401 removed) (domain or fragment, human, UniProt Q92736 1-906, looked up)
chain: MADGGEGEDEIQFLRTDDEVVLQCTATIHKEQQKLCLAAEGFGNRLCFLESTSNSKNVPPDLSICTFVLEQSLSVRALQEMLANTVEKSEGQVDVEKWKFMMKTAQGGGHRTLLYGHAILLRHSYSGMYLCCLSTSRSSTDKLAFDVGLQEDTTGEACWWTIHPASKQRSEGEKVRVGDDLILVSVSSERYLHLSYGNGSLHVDAAFQQTLWSVAPISSGSEAAQGYLIGGDVLRLLHGHMDECLTVPSGEHGEEQRRTVHYEGGAVSVHARSLWRLETLRVAWSGSHIRWGQPFRLRHVTTGKYLSLMEDKNLLLMDKEKADVKSTAFTFRSSKEKLDVGVRKEVDGMGTSEIKYGDSVCYIQHVDTGLWLTYQSVDVKSVRMGSIQRKAIMHHEGHGISLSRSQHEESRTARVIRSTVFLFNRFIRGLDALSKKAKASTVDLPIESVSLSLQDLIGYFHPPDEHLEHEDKQNRLRALKNRQNLFQEEGMINLVLECIDRLHVYSSAAHFADVAGREAGESWKSILNSLYELLAALIRGNRKNCAQFSGSLDWLISRLERLEASSGILEVLHCVLVESPEALNIIKEGHIKSIISLLDKHGRNHKVLDVLCSLCVCHGVAVRSNQHLICDNLLPGRDLLLQTRLVNHVSSMRPNIFLGVSEGSAQYKKWYYELMVDHTEPFVTAEATHLRVGWASTEGYSPYPGGGEEWGGNGVGDDLFSYGFDGLHLWSGCIARTVSSPNQHLLRTDDVISCCLDLSAPSISFRINGQPVQGMFENFNIDGLFFPVVSFSAGIKVRFLLGGRHGEFKFLPPPGYAPCYEAVLPKEKLKVEHSREYKQERTYTRDLLGPTVSLTQAAFTPIPVDTSQIVLPPHLERIREKLAENIHELWVMNKIELGWQYGP
notes: cardiac ryanodine receptor (RyR2), N-terminus, residues 1-906, with residues 399-401 removed; source: HEK293, transiently transfected, in cell homogenate; not shown: cMyc, N-terminal, kept
B3: NT^(E173A + K174A) (RyR2 residues 1–906) (domain or fragment, human, UniProt Q92736 1-906, looked up)
chain: MADGGEGEDEIQFLRTDDEVVLQCTATIHKEQQKLCLAAEGFGNRLCFLESTSNSKNVPPDLSICTFVLEQSLSVRALQEMLANTVEKSEGQVDVEKWKFMMKTAQGGGHRTLLYGHAILLRHSYSGMYLCCLSTSRSSTDKLAFDVGLQEDTTGEACWWTIHPASKQRSEGAAVRVGDDLILVSVSSERYLHLSYGNGSLHVDAAFQQTLWSVAPISSGSEAAQGYLIGGDVLRLLHGHMDECLTVPSGEHGEEQRRTVHYEGGAVSVHARSLWRLETLRVAWSGSHIRWGQPFRLRHVTTGKYLSLMEDKNLLLMDKEKADVKSTAFTFRSSKEKLDVGVRKEVDGMGTSEIKYGDSVCYIQHVDTGLWLTYQSVDVKSVRMGSIQRKAIMHHEGHMDDGISLSRSQHEESRTARVIRSTVFLFNRFIRGLDALSKKAKASTVDLPIESVSLSLQDLIGYFHPPDEHLEHEDKQNRLRALKNRQNLFQEEGMINLVLECIDRLHVYSSAAHFADVAGREAGESWKSILNSLYELLAALIRGNRKNCAQFSGSLDWLISRLERLEASSGILEVLHCVLVESPEALNIIKEGHIKSIISLLDKHGRNHKVLDVLCSLCVCHGVAVRSNQHLICDNLLPGRDLLLQTRLVNHVSSMRPNIFLGVSEGSAQYKKWYYELMVDHTEPFVTAEATHLRVGWASTEGYSPYPGGGEEWGGNGVGDDLFSYGFDGLHLWSGCIARTVSSPNQHLLRTDDVISCCLDLSAPSISFRINGQPVQGMFENFNIDGLFFPVVSFSAGIKVRFLLGGRHGEFKFLPPPGYAPCYEAVLPKEKLKVEHSREYKQERTYTRDLLGPTVSLTQAAFTPIPVDTSQIVLPPHLERIREKLAENIHELWVMNKIELGWQYGP
notes: cardiac ryanodine receptor (RyR2), N-terminus, residues 1-906, double alanine substitution E173 + K174; negative control mutant; source: HEK293, transiently transfected, in cell homogenate; not shown: cMyc, N-terminal, kept
B4: wild-type RyR2 N-terminus (NT, residues 1–906) tagged with the cMyc epitope (domain or fragment, human, UniProt Q92736 1-906, looked up)
chain: B3 chain with A173E, A174K
notes: cardiac ryanodine receptor (RyR2), N-terminus, residues 1-906; species is stated for the full-length RyR2 cDNA (human), not for NT itself; also called NT^WT; source: HEK293, transiently transfected, in cell homogenate (cross-linking) or CHAPS-solubilized lysate (co-IP); not shown: cMyc, N-terminal, kept
B5: NT^(D179A + D180A) (RyR2 residues 1–906) (domain or fragment, human, UniProt Q92736 1-906, looked up)
chain: B3 chain with A173E, A174K, D179A, D180A
notes: cardiac ryanodine receptor (RyR2), N-terminus, residues 1-906, double alanine substitution D179 + D180; also called D179A + D180A mutant; source: HEK293, transiently transfected, in cell homogenate; not shown: cMyc, N-terminal, kept
B6: NT^(K167A + Q168A) (RyR2 residues 1–906) (domain or fragment, human, UniProt Q92736 1-906, looked up)
chain: B3 chain with K167A, Q168A, A173E, A174K
notes: cardiac ryanodine receptor (RyR2), N-terminus, residues 1-906, double alanine substitution K167 + Q168; source: HEK293, transiently transfected, in cell homogenate; not shown: cMyc, N-terminal, kept
B7: NT^R176Q (RyR2 residues 1–906 with the arrhythmia-linked R176Q mutation) (domain or fragment, human, UniProt Q92736 1-906, looked up)
chain: B3 chain with A173E, A174K, R176Q
notes: cardiac ryanodine receptor (RyR2), N-terminus, residues 1-906, with the disease-linked (ARVD2, CPVT) mutation R176Q; source: HEK293, transiently transfected, in cell homogenate (cross-linking) or CHAPS-solubilized lysate (co-IP); not shown: cMyc, N-terminal, kept

Target: the molecule itself
Assay: cross-linking; HEK293 cell homogenate (20 μg) with glutaraldehyde (0.0025% or 260 μmol/L) for 0 min to 1 h under reducing (10 mM DTT) conditions; SDS-PAGE and blot with Ab^cMyc; tetramer formation T = ODT/(ODT + ODM) × 100 by densitometry

Stoichiometry N, 4:
B1, B2, B3, B4, B5, B6, B7
